Values quoted from earlier work, collected in patent publication US20230279355A1, “METHOD FOR THE IN VITRO OR EX VIVO AMPLIFICATION OF STEM CELLS OF BROWN OR BEIGE ADIPOCYTES” (CENTRE NATIONAL DE LA RECHERCHE SCIENTIFIQUE, priority 2020, published 2023).

Test system: UCP1
Conditions: described in the literature

B1: Epidermal Growth Factor (protein, UniProt P01133 23-1207, looked up)
Pro-epidermal growth factor: PQHWSCPEGTLAGNGNSTCVGPAPFLIFSHGNSIFRIDTEGTNYEQLVVDAGVSVIMDFHYNEKRIYWVDLERQLLQRVFLNGSRQERVCNIEKNVSGMAINWINEEVIWSNQQEGIITVTDMKGNNSHILLSALKYPANVAVDPVERFIFWSSEVAGSLYRADLDGVGVKALLETSEKITAVSLDVLDKRLFWIQYNREGSNSLICSCDYDGGSVHISKHPTQHNLFAMSLFGDRIFYSTWKMKTIWIANKHTGKDMVRINLHSSFVPLGELKVVHPLAQPKAEDDTWEPEQKLCKLRKGNCSSTVCGQDLQSHLCMCAEGYALSRDRKYCEDVNECAFWNHGCTLGCKNTPGSYYCTCPVGFVLLPDGKRCHQLVSCPRNVSECSHDCVLTSEGPLCFCPEGSVLERDGKTCSGCSSPDNGGCSQLCVPLSPVSWECDCFPGYDLQLDEKSCAASGPQPFLLFANSQDIRHMHFDGTDYGTLLSQQMGMVYALDHDPVENKIYFAHTALKWIERANMDGSQRERLIEEGVDVPEGLAVDWIGRRFYWTDRGKSLIGRSDLNGKRSKIITKENISQPRGIAVHPMAKRLFWTDTGINPRIESSSLQGLGRLVIASSDLIWPSGITIDFLTDKLYWCDAKQSVIEMANLDGSKRRRLTQNDVGHPFAVAVFEDYVWFSDWAMPSVMRVNKRTGKDRVRLQGSMLKPSSLVVVHPLAKPGADPCLYQNGGCEHICKKRLGTAWCSCREGFMKASDGKTCLALDGHQLLAGGEVDLKNQVTPLDILSKTRVSEDNITESQHMLVAEIMVSDQDDCAPVGCSMYARCISEGEDATCQCLKGFAGDGKLCSDIDECEMGVPVCPPASSKCINTEGGYVCRCSEGYQGDGIHCLDIDECQLGEHSCGENASCTNTEGGYTCMCAGRLSEPGLICPDSTPPPHLREDDHHYSVRNSDSECPLSHDGYCLHDGVCMYIEALDKYACNCVVGYIGERCQYRDLKWWELRHAGHGQQQKVIVVAVCVVVLVMLLLLSLWGAHYYRTQKLLSKNPKNPYEESSRDVRSRRPADTEDGMSSCPQPWFVVIKEHQDLKNGGQPVAGEDGQAADGSMQPTSWRQEPQLCGMGTEQGCWIPVSSDKGSCPQVMERSFHMPSYGTQTLEGGVEKPHSLLSANPLWQQRALDPPHQMELTQ
modifications: Pro-epidermal growth factor
expression of UCP1: able to inhibit the expression of UCP1
